In the supplement of paper PMC5998384:

Experiments:
[1] = tested on: HeLa Kyoto; test: solubility in G1/S (NP-40 vs SDS abundance) (log2 ratio); higher = more soluble; conditions: cell cycle stage: G1/S
[2] = tested on: HeLa Kyoto; test: melting temperature (median over replicates), in situ; higher = more thermally stable
[3] = tested on: HeLa Kyoto; test: solubility change mitosis vs G1/S (difference of NP-40 vs SDS log2 ratios) (log2 ratio difference); higher = more soluble in mitosis
[4] = tested on: HeLa Kyoto; test: thermal stability score vs G1/S (z-score of summed log2 fold changes over temperatures); higher = more thermally stable than in G1/S
[5] = cell cycle stage: early G1 (4.5 h after nocodazole release)
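For melting temperature (median over replicates), in situ in this document: HeLa Kyoto cells synchronized by double thymidine or nocodazole block, proteins quantified by TMT10plex mass spectrometry, three independent biological replicates.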
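For solubility change mitosis vs G1/S (difference of NP-40 vs SDS log2 ratios) in this document: synchronized HeLa Kyoto cells (double thymidine block for G1/S, nocodazole release for mitosis), protein amounts in NP-40 versus SDS lysates quantified by mass spectrometry, three biological replicates.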
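For solubility in G1/S (NP-40 vs SDS abundance) in this document: HeLa Kyoto cells arrested at G1/S by double thymidine block, proteins quantified by TMT10plex mass spectrometry in mild NP-40 versus SDS extracts, three biological replicates.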
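For thermal stability score vs G1/S (z-score of summed log2 fold changes over temperatures) in this document: synchronized HeLa Kyoto cells, proteins quantified by TMT10plex mass spectrometry, three biological replicates, mitosis taken 0.5 h after nocodazole release, G1/S directly after double thymidine block.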

Sequence | solubility in G1/S (log2) [1] | melting temperature ([2]; cell cycle stage: G1/S) | melting temperature ([2]; cell cycle stage: mitosis) | solubility change mitosis (log2) [3] | thermal stability score [4, 5] | thermal stability score ([4]; cell cycle stage: mitosis)
MVLNSLDKMIQLQKNTANIRNICVLAHVDHGKTTLADCLISSNGIISSRLAGKLRYMDSREDEQIRGITMKSSAISLHYATGNEEYLINLIDSPGHVDFSSEVSTAVRICDGCIIVVDAVEGVCPQTQAVLRQAWLENIRPVLVINKIDRLIVELKFTPQEAYSHLKNILEQINALTGTLFTSKVLEERAERETESQVNPNSEQGEQVYDWSTGLEDTDDSHLYFSPEQGNVVFTSAIDGWGFGIEHFARIYSQKIGIKKEVLMKTLWGDYYINMKAKKIMKGDQAKGKKPLFVQLILENIWSLYDAVLKKDKDKIDKIVTSLGLKIGAREARHSDPKVQINAICSQWLPISHAVLAMVCQKLPSPLDITAERVERLMCTGSQTFDSFPPETQALKAAFMKCGSEDTAPVIIFVSKMFAVDAKALPQNKPRPLTQEEIAQRRERARQRHAEKLAAAQGQAPLEPTQDGSAIETCPKGEEPRGDEQQVESMTPKPVLQEENNQESFIAFARVFSGVARRGKKIFVLGPKYSPLEFLRRVPLGFSAPPDGLPQVPHMAYCALENLYLLMGRELEYLEEVPPGNVLGIGGLQDFVLKSATLCSLPSCPPFIPLNFEATPIVRVAVEPKHPSEMPQLVKGMKLLNQADPCVQILIQETGEHVLVTAGEVHLQRCLDDLKERFAKIHISVSEPIIPFRETITKPPKVDMVNEEIGKQQKVAVIHQMKEDQSKIPEGIQVDSDGLITITTPNKLATLSVRAMPLPEEVTQILEENSDLIRSMEQLTSSLNEGENTHMIHQKTQEKIWEFKGKLEQHLTGRRWRNIVDQIWSFGPRKCGPNILVNKSEDFQNSVWTGPADKASKEASRYRDLGNSIVSGFQLATLSGPMCEEPLMGVCFVLEKWDLSKFEEQGASDLAKEGQEENETCSGGNENQELQDGCSEAFEKRTSQKGESPLTDCYGPFSGQLIATMKEACRYALQVKPQRLMAAMYTCDIMATGDVLGRVYAVLSKREGRVLQEEMKEGTDMFIIKAVLPVAESFGFADEIRKRTSGLASPQLVFSHWEIIPSDPFWVPTTEEEYLHFGEKADSENQARKYMNAVRKRKGLYVEEKIVEHAEKQRTLSKNK [EFTUD1] | -0.156 | 50.3 °C | 50 °C | -0.154 | 0.0185 | -0.212
MVLTLGESWPVLVGRRFLSLSAADGSDGSHDSWDVERVAEWPWLSGTIRAVSHTDVTKKDLKVCVEFDGESWRKRRWIEVYSLLRRAFLVEHNLVLAERKSPEISERIVQWPAITYKPLLDKAGLGSITSVRFLGDQQRVFLSKDLLKPIQDVNSLRLSLTDNQIVSKEFQALIVKHLDESHLLKGDKNLVGSEVKIYSLDPSTQWFSATVINGNPASKTLQVNCEEIPALKIVDPSLIHVEVVHDNLVTCGNSARIGAVKRKSSENNGTLVSKQAKSCSEASPSMCPVQSVPTTVFKEILLGCTAATPPSKDPRQQSTPQAANSPPNLGAKIPQGCHKQSLPEEISSCLNTKSEALRTKPDVCKAGLLSKSSQIGTGDLKILTEPKGSCTQPKTNTDQENRLESVPQALTGLPKECLPTKASSKAELEIANPPELQKHLEHAPSPSDVSNAPEVKAGVNSDSPNNCSGKKVEPSALACRSQNLKESSVKVDNESCCSRSNNKIQNAPSRKSVLTDPAKLKKLQQSGEAFVQDDSCVNIVAQLPKCRECRLDSLRKDKEQQKDSPVFCRFFHFRRLQFNKHGVLRVEGFLTPNKYDNEAIGLWLPLTKNVVGIDLDTAKYILANIGDHFCQMVISEKEAMSTIEPHRQVAWKRAVKGVREMCDVCDTTIFNLHWVCPRCGFGVCVDCYRMKRKNCQQGAAYKTFSWLKCVKSQIHEPENLMPTQIIPGKALYDVGDIVHSVRAKWGIKANCPCSNRQFKLFSKPASKEDLKQTSLAGEKPTLGAVLQQNPSVLEPAAVGGEAASKPAGSMKPACPASTSPLNWLADLTSGNVNKENKEKQPTMPILKNEIKCLPPLPPLSKSSTVLHTFNSTILTPVSNNNSGFLRNLLNSSTGKTENGLKNTPKILDDIFASLVQNKTTSDLSKRPQGLTIKPSILGFDTPHYWLCDNRLLCLQDPNNKSNWNVFRECWKQGQPVMVSGVHHKLNSELWKPESFRKEFGEQEVDLVNCRTNEIITGATVGDFWDGFEDVPNRLKNEKEPMVLKLKDWPPGEDFRDMMPSRFDDLMANIPLPEYTRRDGKLNLASRLPNYFVRPDLGPKMYNAYGLITPEDRKYGTTNLHLDVSDAANVMVYVGIPKGQCEQEEEVLKTIQDGDSDELTIKRFIEGKEKPGALWHIYAAKDTEKIREFLKKVSEEQGQENPADHDPIHDQSWYLDRSLRKRLHQEYGVQGWAIVQFLGDVVFIPAGAPHQVHNLYSCIKVAEDFVSPEHVKHCFWLTQEFRYLSQTHTNHEDKLQVKNVIYHAVKDAVAMLKASESSFGKP [KDM3A] | 0.0198 | 48.6 °C | 50.4 °C | -0.158 | -0.474 | 0.304
MVPLVAVVSGPRAQLFACLLRLGTQQVGPLQLHTGASHAARNHYEVLVLGGGSGGITMAARMKRKVGAENVAIVEPSERHFYQPIWTLVGAGAKQLSSSGRPTASVIPSGVEWIKARVTELNPDKNCIHTDDDEKISYRYLIIALGIQLDYEKIKGLPEGFAHPKIGSNYSVKTVEKTWKALQDFKEGNAIFTFPNTPVKCAGAPQKIMYLSEAYFRKTGKRSKANIIFNTSLGAIFGVKKYADALQEIIQERNLTVNYKKNLIEVRADKQEAVFENLDKPGETQVISYEMLHVTPPMSPPDVLKTSPVADAAGWVDVDKETLQHRRYPNVFGIGDCTNLPTSKTAAAVAAQSGILDRTISVIMKNQTPTKKYDGYTSCPLVTGYNRVILAEFDYKAEPLETFPFDQSKERLSMYLMKADLMPFLYWNMMLRGYWGGPAFLRKLFHLGMS [SQRDL] | 0.148 | 54.3 °C | 54.3 °C | -0.0579 | 0.51 | -4.29
MVPRLLLRAWPRGPAVGPGAPSRPLSAGSGPGQYLQRSIVPTMHYQDSLPRLPIPKLEDTIRRYLSAQKPLLNDGQFRKTEQFCKSFENGIGKELHEQLVALDKQNKHTSYISGPWFDMYLSARDSVVLNFNPFMAFNPDPKSEYNDQLTRATNMTVSAIRFLKTLRAGLLEPEVFHLNPAKSDTITFKRLIRFVPSSLSWYGAYLVNAYPLDMSQYFRLFNSTRLPKPSRDELFTDDKARHLLVLRKGNFYIFDVLDQDGNIVSPSEIQAHLKYILSDSSPAPEFPLAYLTSENRDIWAELRQKLMSSGNEESLRKVDSAVFCLCLDDFPIKDLVHLSHNMLHGDGTNRWFDKSFNLIIAKDGSTAVHFEHSWGDGVAVLRFFNEVFKDSTQTPAVTPQSQPATTDSTVTVQKLNFELTDALKTGITAAKEKFDATMKTLTIDCVQFQRGGKEFLKKQKLSPDAVAQLAFQMAFLRQYGQTVATYESCSTAAFKHGRTETIRPASVYTKRCSEAFVREPSRHSAGELQQMMVECSKYHGQLTKEAAMGQGFDRHLFALRHLAAAKGIILPELYLDPAYGQINHNVLSTSTLSSPAVNLGGFAPVVSDGFGVGYAVHDNWIGCNVSSYPGRNAREFLQCVEKALEDMFDALEGKSIKS [CPT2] | 0.115 | 50 °C | 50 °C | -0.135 | -0.368 | 0.841
MVPSRRTWNLGATPSLRGLWRVGRAPEPEPGMARPAPAPASPAARPFPHTGPGRLRTGRGKDTPVCGDEDSSARSAARPALAQCRALSVDWAGPGSPHGLYLTLQVEHLKEKLISQAQEVSRLRSELGGTDLEKHRDLLMVENERLRQEMRRCEAELQELRTKPAGPCPGCEHSQESAQLRDKLSQLQLEMAESKGMLSELNLEVQQKTDRLAEVELRLKDCLAEKAQEEERLSRRLRDSHETIASLRAQSPPVKYVIKTVEVESSKTKQALSESQARNQHLQEQVAMQRQVLKEMEQQLQSSHQLTARLRAQIAMYESELERAHGQMLEEMQSLEEDKNRAIEEAFARAQVEMKAVHENLAGVRTNLLTLQPALRTLTNDYNGLKRQVRGFPLLLQEALRSVKAEIGQAIEEVNSNNQELLRKYRRELQLRKKCHNELVRLKGNIRVIARVRPVTKEDGEGPEATNAVTFDADDDSIIHLLHKGKPVSFELDKVFSPQASQQDVFQEVQALVTSCIDGFNVCIFAYGQTGAGKTYTMEGTAENPGINQRALQLLFSEVQEKASDWEYTITVSAAEIYNEVLRDLLGKEPQEKLEIRLCPDGSGQLYVPGLTEFQVQSVDDINKVFEFGHTNRTTEFTNLNEHSSRSHALLIVTVRGVDCSTGLRTTGKLNLVDLAGSERVGKSGAEGSRLREAQHINKSLSALGDVIAALRSRQGHVPFRNSKLTYLLQDSLSGDSKTLMVVQVSPVEKNTSETLYSLKFAERVRSVELGPGLRRAELGSWSSQEHLEWEPACQTPQPSARAHSAPSSGTSSRPGSIRRKLQPSGKSRPLPV [KIFC3] | -0.0691 | 49.1 °C | 47.3 °C | 0.169 | 0.116 | 0.946
MVRKKNPPLRNVASEGEGQILEPIGTESKVSGKNKEFSADQMSENTDQSDAAELNHKEEHSLHVQDPSSSSKKDLKSAVLSEKAGFNYESPSKGGNFPSFPHDEVTDRNMLAFSSPAAGGVCEPLKSPQRAEADDPQDMACTPSGDSLETKEDQKMSPKATEETGQAQSGQANCQGLSPVSVASKNPQVPSDGGVRLNKSKTDLLVNDNPDPAPLSPELQDFKCNICGYGYYGNDPTDLIKHFRKYHLGLHNRTRQDAELDSKILALHNMVQFSHSKDFQKVNRSVFSGVLQDINSSRPVLLNGTYDVQVTSGGTFIGIGRKTPDCQGNTKYFRCKFCNFTYMGNSSTELEQHFLQTHPNKIKASLPSSEVAKPSEKNSNKSIPALQSSDSGDLGKWQDKITVKAGDDTPVGYSVPIKPLDSSRQNGTEATSYYWCKFCSFSCESSSSLKLLEHYGKQHGAVQSGGLNPELNDKLSRGSVINQNDLAKSSEGETMTKTDKSSSGAKKKDFSSKGAEDNMVTSYNCQFCDFRYSKSHGPDVIVVGPLLRHYQQLHNIHKCTIKHCPFCPRGLCSPEKHLGEITYPFACRKSNCSHCALLLLHLSPGAAGSSRVKHQCHQCSFTTPDVDVLLFHYESVHESQASDVKQEANHLQGSDGQQSVKESKEHSCTKCDFITQVEEEISRHYRRAHSCYKCRQCSFTAADTQSLLEHFNTVHCQEQDITTANGEEDGHAISTIKEEPKIDFRVYNLLTPDSKMGEPVSESVVKREKLEEKDGLKEKVWTESSSDDLRNVTWRGADILRGSPSYTQASLGLLTPVSGTQEQTKTLRDSPNVEAAHLARPIYGLAVETKGFLQGAPAGGEKSGALPQQYPASGENKSKDESQSLLRRRRGSGVFCANCLTTKTSLWRKNANGGYVCNACGLYQKLHSTPRPLNIIKQNNGEQIIRRRTRKRLNPEALQAEQLNKQQRGSNEEQVNGSPLERRSEDHLTESHQREIPLPSLSKYEAQGSLTKSHSAQQPVLVSQTLDIHKRMQPLHIQIKSPQESTGDPGNSSSVSEGKGSSERGSPIEKYMRPAKHPNYSPPGSPIEKYQYPLFGLPFVHNDFQSEADWLRFWSKYKLSVPGNPHYLSHVPGLPNPCQNYVPYPTFNLPPHFSAVGSDNDIPLDLAIKHSRPGPTANGASKEKTKAPPNVKNEGPLNVVKTEKVDRSTQDELSTKCVHCGIVFLDEVMYALHMSCHGDSGPFQCSICQHLCTDKYDFTTHIQRGLHRNNAQVEKNGKPKE [TRPS1] | 0.00718 | 51.1 °C | 51.9 °C | -0.0534 | 0.487 | 0.962
MVRTKTWTLKKHFVGYPTNSDFELKTAELPPLKNGEVLLEALFLTVDPYMRVAAKRLKEGDTMMGQQVAKVVESKNVALPKGTIVLASPGWTTHSISDGKDLEKLLTEWPDTIPLSLALGTVGMPGLTAYFGLLEICGVKGGETVMVNAAAGAVGSVVGQIAKLKGCKVVGAVGSDEKVAYLQKLGFDVVFNYKTVESLEETLKKASPDGYDCYFDNVGGEFSNTVIGQMKKFGRIAICGAISTYNRTGPLPPGPPPEIVIYQELRMEAFVVYRWQGDARQKALKDLLKWVLEGKIQYKEYIIEGFENMPAAFMGMLKGDNLGKTIVKA [PTGR1] | 0.248 | 53.2 °C | 53.5 °C | -0.225 | 0.13 | -1.48
